From US20220356229A1 (published 2022)

T1: MERS full length Spike (MERS-CoV, UniProt K9N5Q8 18-1291)
T1 sequence: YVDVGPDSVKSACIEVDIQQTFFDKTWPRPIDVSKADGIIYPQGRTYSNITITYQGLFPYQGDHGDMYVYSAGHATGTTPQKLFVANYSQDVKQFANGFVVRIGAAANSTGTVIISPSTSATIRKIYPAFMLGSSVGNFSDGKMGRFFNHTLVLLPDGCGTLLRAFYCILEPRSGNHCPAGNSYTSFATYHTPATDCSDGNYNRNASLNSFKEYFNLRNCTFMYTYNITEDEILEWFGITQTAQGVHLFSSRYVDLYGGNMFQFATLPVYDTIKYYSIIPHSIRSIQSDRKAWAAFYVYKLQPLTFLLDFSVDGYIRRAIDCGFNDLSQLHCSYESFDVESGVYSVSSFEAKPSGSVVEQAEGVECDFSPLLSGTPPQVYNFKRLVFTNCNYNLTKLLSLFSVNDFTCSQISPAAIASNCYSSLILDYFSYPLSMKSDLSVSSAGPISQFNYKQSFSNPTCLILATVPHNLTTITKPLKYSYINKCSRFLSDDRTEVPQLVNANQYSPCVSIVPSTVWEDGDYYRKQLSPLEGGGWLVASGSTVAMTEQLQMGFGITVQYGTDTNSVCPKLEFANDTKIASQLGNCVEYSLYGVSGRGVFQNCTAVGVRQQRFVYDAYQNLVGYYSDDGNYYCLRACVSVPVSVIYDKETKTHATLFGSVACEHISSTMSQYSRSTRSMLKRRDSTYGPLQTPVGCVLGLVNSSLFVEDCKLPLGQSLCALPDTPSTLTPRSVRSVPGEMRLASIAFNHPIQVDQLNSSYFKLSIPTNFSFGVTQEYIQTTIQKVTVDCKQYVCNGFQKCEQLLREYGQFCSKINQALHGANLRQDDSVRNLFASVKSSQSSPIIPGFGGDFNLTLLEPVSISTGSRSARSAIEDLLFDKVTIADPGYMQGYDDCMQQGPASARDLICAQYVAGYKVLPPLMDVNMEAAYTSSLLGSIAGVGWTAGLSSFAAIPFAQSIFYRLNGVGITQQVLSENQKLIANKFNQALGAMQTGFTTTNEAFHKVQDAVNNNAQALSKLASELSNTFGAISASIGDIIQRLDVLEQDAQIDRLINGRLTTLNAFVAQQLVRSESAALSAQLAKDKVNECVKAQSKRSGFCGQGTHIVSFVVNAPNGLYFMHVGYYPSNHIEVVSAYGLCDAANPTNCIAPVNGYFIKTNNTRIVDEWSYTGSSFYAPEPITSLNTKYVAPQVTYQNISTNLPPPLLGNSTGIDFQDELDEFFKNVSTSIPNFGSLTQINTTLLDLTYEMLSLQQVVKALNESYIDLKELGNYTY

T2: HKU1 full length Spike (human coronavirus HKU1, UniProt Q5MQD0 13-1276)
T2 sequence: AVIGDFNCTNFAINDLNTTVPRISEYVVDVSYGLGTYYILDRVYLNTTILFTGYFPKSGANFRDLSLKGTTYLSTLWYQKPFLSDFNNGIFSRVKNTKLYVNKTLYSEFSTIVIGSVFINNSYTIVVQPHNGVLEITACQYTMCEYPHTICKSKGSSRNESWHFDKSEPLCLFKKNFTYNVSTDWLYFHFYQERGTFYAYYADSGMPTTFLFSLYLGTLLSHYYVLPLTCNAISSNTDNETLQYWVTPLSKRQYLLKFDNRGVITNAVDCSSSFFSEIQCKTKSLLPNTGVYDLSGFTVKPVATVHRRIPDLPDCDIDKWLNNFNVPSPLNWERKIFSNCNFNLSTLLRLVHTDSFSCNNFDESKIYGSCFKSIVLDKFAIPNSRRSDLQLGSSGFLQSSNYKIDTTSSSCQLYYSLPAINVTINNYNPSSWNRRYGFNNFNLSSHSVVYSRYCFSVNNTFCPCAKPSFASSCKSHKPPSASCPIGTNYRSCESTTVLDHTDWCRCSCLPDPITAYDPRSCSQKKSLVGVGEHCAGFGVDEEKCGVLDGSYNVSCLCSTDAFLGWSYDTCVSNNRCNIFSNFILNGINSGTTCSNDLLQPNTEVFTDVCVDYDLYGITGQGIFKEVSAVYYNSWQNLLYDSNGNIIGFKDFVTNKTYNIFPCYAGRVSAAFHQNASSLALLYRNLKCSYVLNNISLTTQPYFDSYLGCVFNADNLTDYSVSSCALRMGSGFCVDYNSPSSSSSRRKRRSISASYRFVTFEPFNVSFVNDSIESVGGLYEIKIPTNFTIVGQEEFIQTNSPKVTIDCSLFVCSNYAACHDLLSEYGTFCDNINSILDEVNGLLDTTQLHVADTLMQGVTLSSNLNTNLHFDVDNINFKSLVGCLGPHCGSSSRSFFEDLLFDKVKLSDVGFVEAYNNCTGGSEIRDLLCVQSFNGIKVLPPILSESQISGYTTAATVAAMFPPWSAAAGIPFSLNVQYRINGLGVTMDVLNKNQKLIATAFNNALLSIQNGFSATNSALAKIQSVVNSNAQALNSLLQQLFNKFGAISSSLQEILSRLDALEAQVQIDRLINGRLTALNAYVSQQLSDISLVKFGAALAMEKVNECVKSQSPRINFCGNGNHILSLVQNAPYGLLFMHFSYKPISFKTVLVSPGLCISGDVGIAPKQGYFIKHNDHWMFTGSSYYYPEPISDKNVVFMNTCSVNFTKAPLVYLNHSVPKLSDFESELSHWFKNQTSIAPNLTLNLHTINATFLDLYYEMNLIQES

B1: mAb 1036 (antibody, V domains shown)
VH: QVQLVQSGAEVKKPGSSVKVSCKASGGTLSSYTISWVRQAPGQGLEWMGRIIPILGIADYAQKFQGRVTITADKSTTTAYMDLSSLGSEDTALYYCASAPKDWSSGFDYYYGMDVWGQGTMVTVSS
VL: DIVMTQTPLSLSVTPGQPASISCKSSQSLLNSDGKTYLYWYLQKAGQPPQLLIYEVSNRFSGVPERFSGSGSGTDFTLKISRVEAEDVGVYYCMQSVQLPPYTFGQGTKLEITR
B2: mAb 1149 (antibody, V domains shown)
VH: QVQLVQSGAEVKKPGASVKVSCKASGYTFASYDINWVRQATGQGPEWMGWMIPNIGNTGYAQKFQGRVTMTRNTSISTAYMELSSLTSEDTAVYYCARVSRLFNDFGLRHEAPVDFWGQGTRVTVSS
VL: QSVLTQPPSVSGAPGQRVTISCTGSSSNIGAGYDVHWYQQLPGTAPKLLIYGYSSRPSGVPDRFSGSKSGTSASLAITGLQAEDEADYYCQSYDSSLSVLFGGGTKLTVLG
B3: mAb 1015 (antibody, V domains shown)
VH: EVQLVESGGGLVQPGGSLRLSCAASGFTFSSYWMHWVRQAPGKGLVWVSHINSDGSSTSYADSVKGRFTISRDNAKNTLYLQMNSLRAEDTAVYYCARGLRYFDLDVWGQGTTVTVSS
VL: QSVLTQPPSVSEAPRQRVTISCSGSSSNIGNNAVNWYQQLPGKAPKLLIFYDDLLPSGVSDRFSGSKSGTSASLAISGLQSEDEADYYCAAWDDSLNGGVFGGGTKLTVLG
B4: mAb 1075 (antibody, V domains shown)
VH: QVQLVQSGAEVKKPGASVKVSCKVSGYTLIELSMHWVRQAPGKGLEWMGGFDPEDGETIYAQKFQGRVTMTEDTSTDTAYMELSSLRSEDTAVYYCATEWAYYGSGSYLGYWGQGTLVTVSS
VL: EIVMTQSPATLSVSPGERATLSCRASQSVSSNLAWFQQKPGQAPRLLIYGASTRVTVIPARFSGSGSGTEFTLTISSLQSEDFAVYYCQQYNNWPRTFGQGTKVEIKR
B5: mAb 894 (antibody, V domains shown)
VH: QVQLVQSGAEVKKPGASVKVSCKVSGYTLPELSIHWVRQAPGKGLEWMGGFDPENAETIYTQKFQGRLTMTEDTSTDTAYMELSSLRSEDTAMYYCATSFVLMPAALGDYSYYYGMDVWGQGTTVTVSS
VL: not shown
B6: mAb 1135 (antibody, V domains shown)
VH: EVQLVESGGGLVQPGRSLRLSCAASGLTFEDYAMHWVRQVPGKGLEWVSGISWNSGTIGYADSVKGRFIISRDNAKNSLYLQMRSLRAEDTALYYCAKDVGFGELLYYAFDIWGQGTMVTVSS
VL: QSALTQPASVSGSPGQSITISCTGTSSDVGGYNYVSWYQQHPGKAPKLMIYDVSNRPSGVSNRFSGSKSGNTASLTISGLQAEDEADYYCSSYTSSSTVVFGGGTKLTVLG
B7: mAb 923 (antibody, V domains shown)
VH: EVQLVESGGGVVRPGGSLRLSCAASGFIFDDYDMTWVRQAPGKGLEWVSGISWNGGNTGYADSVKGRFTISRDNAKNSLYLQMNSLRAEDTALYHCAVIMSPIPRYSGYDWAGGAFDIWGQGTMVTVSS
VL: SSELTQDPAVSVALGQTVRITCQGDSLRSYYASWYQQKPGQVPILVIYDKNNRPSGIPDRFSGSSSGNTASLTITGAQAEDEADYYCNSRDSSGNAVVFGGGTKLTVLG
B8: mAb 970 (antibody, V domains shown)
VH: EVQLVESGGGLVQPGGSLRLSCAASGFTFSSYWMSWVRQAPGKGLEWVANINKDGSEKYYVDSVKGRFTISRDNAKNSLYLQMNSLRAEDTAVYFCARDYRYFDWLLSQIDLEIDYFDYWGQGTLVTVSS
VL: not shown
B9: mAb 896 (antibody, V domains shown)
VH: EVQLVESGGGVVQPGGSLRLSCAASGFTFDDYAMHWVRQVPGKGLEWVSLISGDGGSTYYADSVKGRFTISRDNSKNSLYVQMNSLRTEDTALYYCVKDRGGSGWDLNHYYYGMDVWGQGTTVTVSS
VL: DIQLTQSPSFLSASVGDRVTVTCRASQGISSYLAWYQQKPGKAPKLLIYAAYTLQSGVPSRFSGSGSETEFTLTISSLQPEDFATYYCQQVKSYPLTFGGGTKVEIKR
B10: mAb 936 (antibody, V domains shown)
VH: EVQLVESGGGLVQPGRSLTLSCAGSGFTFDDYAMHWVRQAPGKGLEWVSGISWNSGSIGYADSVKGRFTISRDNAKNSLYLQMNSLRAEDTALYYCAKDVSYDSSGYYNNAFDIWGQGTMVTVSS
VL: DIQLTQSPSFLSASVGDRVTITCRASQGISSYLAWYQQKPGKAPKLLIYAASTLQSGVPSRFSGSGSGTEFTLTISSLQPEDFATYYCQQLYSYPVTFGQGTRLEIKR
B11: mAb 1037 (antibody, V domains shown)
VH: QITLKESGPTLVKPTQTLTLTCTFSGFSLSTSGVGVGWIRQPPGKALEWLALIYWDDDKRYSPSLKSRLTITKDTSKNQVVLTMTNMDPVDTATYYCAHHTITRINDYWGQGTLVTVSS
VL: QSALTQPASVSGSPGQSITISCTATSSDVGAYNYVSWYQQHPGKAPKLMIYDVSKRPSGVSNRFSGSKSGNTASLTISGLQAEDEADYYCSSYTSSSTVFGGGTKLTVLG

How the values were obtained:
MERS full length Spike = target: T1, MERS full length Spike
HKU1 full length Spike = target: T2, HKU1 full length Spike
[1] = target: SARS-CoV full length Spike (SARS-CoV, UniProt P59594 14-1190)

Row | Binder | median fluorescence intensity, fold over isotype control (MERS full length Spike) [fold over isotype] | median fluorescence intensity, fold over isotype control (HKU1 full length Spike) [fold over isotype] | median fluorescence intensity, fold over isotype control [1] [fold over isotype]
1 | B1 | 1.07 | 0.94 | 1.05
2 | B2 | 1.04 | 0.83 | 1.05
3 | B3 | 0.85 | 1.04 | 0.91
4 | B4 | 0.89 | 0.93 | 0.91
5 | B5 | 1.06 | 1.18 | 1.1
6 | B6 | 0.93 | 0.83 | 0.92
7 | B7 | 1.08 | 1.42 | 773
8 | B8 | 0.87 | 0.88 | 547
9 | B9 | 1.02 | 1.07 | 0.97
10 | B10 | 0.92 | 1.02 | 0.95
11 | B11 | 1.06 | 1.43 | 4.36
